Consider 125 sequences from the supplement of paper PMC9112550, “Optimization of the antimicrobial peptide Bac7 by deep mutational scanning” (BMC Biology, 2022).

This data set has as its system Escherichia coli TOP10. In words: shrunken log2 fold change of peptide-encoding DNA abundance (4.5 h post-induction vs induction); higher = less antimicrobial activity (less host growth inhibition). The following applies: time post-induction: 4.5 h; library: site-saturation at positions 5, 18, 19, 20.
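Note: peptides expressed intracellularly from a pBAD plasmid library in pooled LB shake-flask culture, induced with 0.3% L-arabinose, DNA abundance read by NGS, three biological replicates, DESeq2 with apeglm shrinkage.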

Consider RRIRNRPPRLPRPRPRPRPNPRP, for which the “shrunken log2 fold change” value came out at 0.135. RRIRGRPPRLPRPRPRPTIDPRP: the “shrunken log2 fold change” value is 0.214. The same measure for RRIRTRPPRLPRPRPRPAYKPRP: 0.0328; for RRIRQRPPRLPRPRPRPIFTPRP: -0.123. The same measure for RRIRPRPPRLPRPRPRPRTKPRP: 0.518; for RRIRHRPPRLPRPRPRPHMWPRP: 0.104. In the case of RRIRSRPPRLPRPRPRPDWAPRP, the “shrunken log2 fold change” value worked out at 0.236. With RRIRYRPPRLPRPRPRPSIEPRP, the “shrunken log2 fold change” value was -1.02. Turning to RRIRLRPPRLPRPRPRPTTKPRP, the “shrunken log2 fold change” value worked out at 0.155. As to RRIRTRPPRLPRPRPRPFSSPRP, the “shrunken log2 fold change” value was -0.399.

Consider RRIRKRPPRLPRPRPRPIQFPRP, for which the “shrunken log2 fold change” value turned out to be 0.0779. Regarding RRIRVRPPRLPRPRPRPMIWPRP, the “shrunken log2 fold change” value was -0.179.

In the case of RRIRTRPPRLPRPRPRPGVGPRP, the “shrunken log2 fold change” value was 0.546. On to RRIRMRPPRLPRPRPRPSKYPRP, for which the “shrunken log2 fold change” value is -0.166. Take RRIRVRPPRLPRPRPRPHPKPRP: the “shrunken log2 fold change” value is 0.0188.

As to RRIRGRPPRLPRPRPRPTLQPRP, the “shrunken log2 fold change” value stood at 0.779. RRIRRRPPRLPRPRPRPDYHPRP: the “shrunken log2 fold change” value was -0.0959. Regarding RRIRQRPPRLPRPRPRPGGLPRP, the “shrunken log2 fold change” value was 0.28.

Take RRIRCRPPRLPRPRPRPRQYPRP: the “shrunken log2 fold change” value was -0.15.

For RRIRIRPPRLPRPRPRPQRKPRP, the “shrunken log2 fold change” value is -0.104.

As for RRIRPRPPRLPRPRPRPQHVPRP, the “shrunken log2 fold change” value was determined as 0.00743. In the case of RRIRGRPPRLPRPRPRPYSQPRP, the “shrunken log2 fold change” value was -0.621. On to RRIRGRPPRLPRPRPRPFYSPRP, for which the “shrunken log2 fold change” value was -0.00304.

Turning to RRIRCRPPRLPRPRPRPQVTPRP, the “shrunken log2 fold change” value was -0.102.

RRIRRRPPRLPRPRPRPMMPPRP: the “shrunken log2 fold change” value was found to be 0.135.

RRIRARPPRLPRPRPRPWHRPRP: the “shrunken log2 fold change” value came to 0.00868. For RRIRARPPRLPRPRPRPETGPRP, the “shrunken log2 fold change” value was found to be 0.772. The same measure for RRIRTRPPRLPRPRPRPQSYPRP: -0.0281. As for RRIRWRPPRLPRPRPRPRQCPRP, the figure is 0.137; as for RRIRSRPPRLPRPRPRPGFIPRP, -0.205.

For the sequence RRIRTRPPRLPRPRPRPLVFPRP, the “shrunken log2 fold change” value was -0.214. Regarding RRIRGRPPRLPRPRPRPNPEPRP, the “shrunken log2 fold change” value came to 0.511. On to RRIRVRPPRLPRPRPRPFWVPRP, for which the “shrunken log2 fold change” value stood at 0.421. In the case of RRIRCRPPRLPRPRPRPWKMPRP, the “shrunken log2 fold change” value was -0.0124. Take RRIRIRPPRLPRPRPRPESHPRP: the “shrunken log2 fold change” value was -0.0755. In the case of RRIRPRPPRLPRPRPRPPAAPRP, the “shrunken log2 fold change” value stood at 0.54. As to RRIRTRPPRLPRPRPRPDQDPRP, the “shrunken log2 fold change” value was -0.0328. Regarding RRIRVRPPRLPRPRPRPTPHPRP, the “shrunken log2 fold change” value was 0.313. RRIRERPPRLPRPRPRPPSNPRP: the “shrunken log2 fold change” value was -0.208.

RRIRYRPPRLPRPRPRPVRIPRP: the “shrunken log2 fold change” value was -0.053.

As for RRIRLRPPRLPRPRPRPCYWPRP, the “shrunken log2 fold change” value was -0.317. Regarding RRIRLRPPRLPRPRPRPVGPPRP, the “shrunken log2 fold change” value was found to be 0.163. On to RRIRQRPPRLPRPRPRPKMKPRP, for which the “shrunken log2 fold change” value was -0.08.

In the case of RRIRQRPPRLPRPRPRPHQSPRP, the “shrunken log2 fold change” value is 0.0405. As to RRIRFRPPRLPRPRPRPSGYPRP, the “shrunken log2 fold change” value worked out at 0.00547.

Turning to RRIRQRPPRLPRPRPRPIHNPRP, the “shrunken log2 fold change” value is -0.464. Consider RRIRRRPPRLPRPRPRPTFCPRP, for which the “shrunken log2 fold change” value worked out at 0.0676. As to RRIRARPPRLPRPRPRPYMCPRP, the “shrunken log2 fold change” value was -0.773.

For RRIRIRPPRLPRPRPRPPNNPRP, the “shrunken log2 fold change” value was -0.637. As for RRIRSRPPRLPRPRPRPTQGPRP, the “shrunken log2 fold change” value is 0.36.

Turning to RRIRSRPPRLPRPRPRPNWDPRP, the “shrunken log2 fold change” value was -0.315.

In the case of RRIRQRPPRLPRPRPRPRQGPRP, the “shrunken log2 fold change” value was determined as 0.0279. As to RRIRERPPRLPRPRPRPKGNPRP, the “shrunken log2 fold change” value turned out to be 0.139.

As to RRIRFRPPRLPRPRPRPLMGPRP, the “shrunken log2 fold change” value was -0.18.

Consider RRIRERPPRLPRPRPRPNPMPRP, for which the “shrunken log2 fold change” value was -0.211. For RRIRQRPPRLPRPRPRPIICPRP, the “shrunken log2 fold change” value worked out at 0.0208. On to RRIRSRPPRLPRPRPRPERWPRP, for which the “shrunken log2 fold change” value turned out to be 1.14. Regarding RRIRERPPRLPRPRPRPQFHPRP, the “shrunken log2 fold change” value is -0.629. For RRIRRRPPRLPRPRPRPKNLPRP, the “shrunken log2 fold change” value is -0.104. The same measure for RRIRLRPPRLPRPRPRPRAKPRP: 0.139; for RRIRERPPRLPRPRPRPSQDPRP: -0.137. RRIRLRPPRLPRPRPRPQRRPRP: the “shrunken log2 fold change” value turned out to be 0.0742. Regarding RRIRPRPPRLPRPRPRPQQLPRP, the “shrunken log2 fold change” value was found to be 0.0282.

Take RRIRGRPPRLPRPRPRPTQGPRP: the “shrunken log2 fold change” value worked out at 1.14. Regarding RRIRCRPPRLPRPRPRPVRMPRP, the “shrunken log2 fold change” value is -0.053. Regarding RRIRVRPPRLPRPRPRPCHNPRP, the “shrunken log2 fold change” value was -0.362.

In the case of RRIRIRPPRLPRPRPRPCHKPRP, the “shrunken log2 fold change” value is -0.16. Turning to RRIRDRPPRLPRPRPRPECWPRP, the “shrunken log2 fold change” value came out at 1.84. For RRIRFRPPRLPRPRPRPMKMPRP, the “shrunken log2 fold change” value was -0.0224. For the sequence RRIRRRPPRLPRPRPRPFERPRP, the “shrunken log2 fold change” value is 0.0145. For the sequence RRIRRRPPRLPRPRPRPILWPRP, the “shrunken log2 fold change” value stood at 0.0428.

As to RRIRKRPPRLPRPRPRPPGIPRP, the “shrunken log2 fold change” value worked out at 0.279.

Regarding RRIRFRPPRLPRPRPRPHMTPRP, the “shrunken log2 fold change” value is -0.186.

As to RRIRSRPPRLPRPRPRPIAAPRP, the “shrunken log2 fold change” value was determined as 0.333. The same measure for RRIRVRPPRLPRPRPRPLNHPRP: -0.17. Regarding RRIRNRPPRLPRPRPRPNQGPRP, the “shrunken log2 fold change” value is -0.338. RRIRVRPPRLPRPRPRPQYRPRP: the “shrunken log2 fold change” value was -0.134.

Consider RRIRYRPPRLPRPRPRPLTHPRP, for which the “shrunken log2 fold change” value was -0.845. As for RRIRHRPPRLPRPRPRPLPWPRP, the figure is 0.108; as for RRIRYRPPRLPRPRPRPMPEPRP, 0.0501; as for RRIRPRPPRLPRPRPRPNWSPRP, 0.0504. RRIRWRPPRLPRPRPRPCLTPRP: the “shrunken log2 fold change” value is -0.00541. RRIRCRPPRLPRPRPRPKHQPRP: the “shrunken log2 fold change” value was -0.0465. RRIRSRPPRLPRPRPRPKIDPRP: the “shrunken log2 fold change” value was -0.000854. Consider RRIRCRPPRLPRPRPRPRWTPRP, for which the “shrunken log2 fold change” value stood at 0.236. Regarding RRIRDRPPRLPRPRPRPCNYPRP, the “shrunken log2 fold change” value was -0.475. With RRIRGRPPRLPRPRPRPWTIPRP, the “shrunken log2 fold change” value came to 0.00608. With RRIRIRPPRLPRPRPRPGNKPRP, the “shrunken log2 fold change” value is -0.569. Turning to RRIRVRPPRLPRPRPRPNNRPRP, the “shrunken log2 fold change” value was -0.276. As to RRIRFRPPRLPRPRPRPHRIPRP, the “shrunken log2 fold change” value is -0.526. As for RRIRIRPPRLPRPRPRPTYEPRP, the figure is -0.458. With RRIRPRPPRLPRPRPRPHWRPRP, the “shrunken log2 fold change” value was determined as 0.0957.

Regarding RRIRHRPPRLPRPRPRPVIDPRP, the “shrunken log2 fold change” value was -0.395.

As to RRIRCRPPRLPRPRPRPVYVPRP, the “shrunken log2 fold change” value was -0.483. RRIRTRPPRLPRPRPRPVRRPRP: the “shrunken log2 fold change” value is 0.38.

Turning to RRIRLRPPRLPRPRPRPRKWPRP, the “shrunken log2 fold change” value was determined as 0.184. RRIRWRPPRLPRPRPRPVIVPRP: the “shrunken log2 fold change” value is -0.0785. Consider RRIRGRPPRLPRPRPRPSHKPRP, for which the “shrunken log2 fold change” value is -0.157.

Regarding RRIRERPPRLPRPRPRPDRAPRP, the “shrunken log2 fold change” value stood at 0.00194. As to RRIRNRPPRLPRPRPRPGVIPRP, the “shrunken log2 fold change” value was found to be 0.208. As for RRIRERPPRLPRPRPRPVRYPRP, the figure is -0.582; as for RRIRCRPPRLPRPRPRPTENPRP, 0.0623; as for RRIRPRPPRLPRPRPRPINIPRP, -1.15. As for RRIRVRPPRLPRPRPRPPSVPRP, the figure is 0.129. For RRIRFRPPRLPRPRPRPVDRPRP, the “shrunken log2 fold change” value was 0.123.

With RRIRPRPPRLPRPRPRPWFHPRP, the “shrunken log2 fold change” value turned out to be 0.0116. As for RRIRCRPPRLPRPRPRPGKYPRP, the “shrunken log2 fold change” value is -0.316. With RRIRFRPPRLPRPRPRPRDHPRP, the “shrunken log2 fold change” value is 0.015. RRIRLRPPRLPRPRPRPAFTPRP: the “shrunken log2 fold change” value came out at 0.238.

RRIRPRPPRLPRPRPRPYRWPRP: the “shrunken log2 fold change” value was found to be 0.087.

With RRIRGRPPRLPRPRPRPFMDPRP, the “shrunken log2 fold change” value is -0.000933. For the sequence RRIRQRPPRLPRPRPRPPSPPRP, the “shrunken log2 fold change” value was 0.426. For RRIRLRPPRLPRPRPRPRESPRP, the “shrunken log2 fold change” value came out at 0.787.

Take RRIRFRPPRLPRPRPRPNDVPRP: the “shrunken log2 fold change” value was 0.0386. RRIRYRPPRLPRPRPRPVDQPRP: the “shrunken log2 fold change” value is -0.611. The same measure for RRIRCRPPRLPRPRPRPGRHPRP: 0.105. In the case of RRIRSRPPRLPRPRPRPTPVPRP, the “shrunken log2 fold change” value was found to be 0.381. For the sequence RRIRQRPPRLPRPRPRPSGPPRP, the “shrunken log2 fold change” value was -0.0826. As for RRIRFRPPRLPRPRPRPFICPRP, the figure is -0.65. The same measure for RRIRGRPPRLPRPRPRPLANPRP: 0.835. Regarding RRIRYRPPRLPRPRPRPGFYPRP, the “shrunken log2 fold change” value is -0.406. In the case of RRIRPRPPRLPRPRPRPVRMPRP, the “shrunken log2 fold change” value worked out at 0.213.

For the sequence RRIRWRPPRLPRPRPRPEMRPRP, the “shrunken log2 fold change” value is 2.09. RRIRLRPPRLPRPRPRPVNNPRP: the “shrunken log2 fold change” value is -0.269. On to RRIRIRPPRLPRPRPRPSYWPRP, for which the “shrunken log2 fold change” value is -0.781.
